The record followed here is publication PMC7311561.

The target of test [1] is cathepsin B from human (human).
Test [2] concerns the target papain from Carica papaya (Carica papaya) (UniProt P00784).
Test [3] concerns the target cathepsin L from human (human).

papain from Carica papaya (Carica papaya), sequence (P00784 134-345): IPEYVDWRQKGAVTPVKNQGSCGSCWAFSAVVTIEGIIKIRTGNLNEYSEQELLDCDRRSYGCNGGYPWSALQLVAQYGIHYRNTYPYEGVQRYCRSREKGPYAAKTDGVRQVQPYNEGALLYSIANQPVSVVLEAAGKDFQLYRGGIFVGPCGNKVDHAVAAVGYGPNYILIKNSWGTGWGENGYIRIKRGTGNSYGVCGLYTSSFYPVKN

In test [1], “TK-cystatin (secretory cystatin from Thelohanellus kitauei) (natural protein)” yielded an IC50 of inhibition of cathepsin B activity (0.026 μmol/L cathepsin B, fluorogenic substrate Z-Arg-Arg-AMC, pH 5.5, increasing TK-cystatin) of 2.1 μmol/L. This substance had an IC50 of inhibition of papain activity (0.15 μmol/L papain, fluorogenic substrate Z-Phe-Arg-AMC, pH 5.5, increasing TK-cystatin) in test [2] of 0.8 μmol/L. In test [3], the IC50 of inhibition of cathepsin L activity (0.026 μmol/L cathepsin L, fluorogenic substrate Z-Phe-Arg-AMC, pH 5.5, increasing TK-cystatin) amounted to 0.175 μmol/L.
